Results reported in patent publication US20190322750A1 (Y BIOLOGICS, published 2019).

T1: ITGA6
T1 construct: unrelated antigen column; all antibodies give 0.5 to 0.6
T1 sequence (P23229 whole entry, species assumed, looked up): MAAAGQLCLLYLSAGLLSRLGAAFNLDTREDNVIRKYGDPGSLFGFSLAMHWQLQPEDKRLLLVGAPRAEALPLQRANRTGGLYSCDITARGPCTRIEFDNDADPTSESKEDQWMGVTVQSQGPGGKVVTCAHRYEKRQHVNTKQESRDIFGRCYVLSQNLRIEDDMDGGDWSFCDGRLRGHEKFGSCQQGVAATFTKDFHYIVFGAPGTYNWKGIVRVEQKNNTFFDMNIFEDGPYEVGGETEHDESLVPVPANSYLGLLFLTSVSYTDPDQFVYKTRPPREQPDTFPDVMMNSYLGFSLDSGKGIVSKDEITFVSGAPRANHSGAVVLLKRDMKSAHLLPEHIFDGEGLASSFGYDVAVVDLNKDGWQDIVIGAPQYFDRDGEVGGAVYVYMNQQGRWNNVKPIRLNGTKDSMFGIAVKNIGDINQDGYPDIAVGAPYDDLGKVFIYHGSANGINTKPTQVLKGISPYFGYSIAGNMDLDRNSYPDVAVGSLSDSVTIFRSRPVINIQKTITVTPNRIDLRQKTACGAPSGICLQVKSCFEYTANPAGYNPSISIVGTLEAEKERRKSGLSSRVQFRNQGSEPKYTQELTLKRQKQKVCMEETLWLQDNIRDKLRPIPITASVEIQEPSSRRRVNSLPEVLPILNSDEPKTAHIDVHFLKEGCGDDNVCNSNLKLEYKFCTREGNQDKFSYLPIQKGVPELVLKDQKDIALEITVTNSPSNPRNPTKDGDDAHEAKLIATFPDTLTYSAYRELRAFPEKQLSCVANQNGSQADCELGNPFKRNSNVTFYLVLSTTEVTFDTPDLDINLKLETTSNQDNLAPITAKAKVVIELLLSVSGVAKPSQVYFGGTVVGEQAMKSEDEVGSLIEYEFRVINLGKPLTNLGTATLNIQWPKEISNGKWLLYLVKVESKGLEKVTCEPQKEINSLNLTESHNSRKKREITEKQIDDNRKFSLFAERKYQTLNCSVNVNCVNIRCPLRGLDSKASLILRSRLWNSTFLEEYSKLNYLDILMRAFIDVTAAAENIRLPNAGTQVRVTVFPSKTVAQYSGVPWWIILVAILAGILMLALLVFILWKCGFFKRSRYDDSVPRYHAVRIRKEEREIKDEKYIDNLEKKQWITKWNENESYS

B1: PDL1-23E5 (antibody, V domains shown)
VH: QVQLVQSGAEVVKPGSSVKVSCKASGDTFSRYAISWVRQAPGQAPEWMGRIIPVLGAANYARKFQDRVTITADISTTTAFMELTSLRSEDTAVYYCARSLSGYSLGAFDVWGPGTLVTVSS
VL: QLVLTQPPSVSGAPGQSVSISCIGSNSNIGTPYDVHWYQQIPGEAPKLLIYGSTNRPSGVPDRFSGSRSGSSASLDITGLQADDEAYYYCQSYDRSLGVSDVVFGGGTKLTVL
notes: Only FR/CDR pieces are tied to the clone
B2: PDL1-31D9 (antibody, V domains shown)
VH: QMQLVESGGGLVQPGGSLRLSCSASGFTFSSYVMHWVRQAPGKGLEYVSAISSNGGSTYYADSVKGRFTISRDNSKNTLYLQMSSLRSEDTAVYYCAREHFSTYSYGVDVWGPGTTVTVSS
VL: DIVMTQTPLSLPVTPGEPASISCRSSQSLLDSDDGNTYLDWYLQKPGQSPQLLIYMISFRASGVPDRFSGSGSGTDFTLKISRVEAEDSGIYYCMQRVEFPYTFGQGTKLEIK
notes: as for B1
B3: PDL1-30B1 (antibody, V domains shown)
VH: QVQLVESGGGVVQPGRSLRLSCAASGFTFSSYAMHWVRQGPGKGLEWVAVISYDGSNEFYADSVKGRFTISRDNSKNTLYLQMNSLRAEDTAVYYCARGDYNGVYMDVWGQGTTVTVSS
VL: DIVMTQTPLSLSVTPGQPASISCKSSQSLLHSDGKTYLYWYLQKPGQSPQLLIYEVSKRFSGVPDRFSGSGSGTDFTLKIGRVEAEDVGVYYCMQGLHLPYTFGQGTKLEIK
notes: as for B1
B4: PDL1-27F8 (antibody, V domains shown)
VH: QVQLVQSGAEVKKPGSSVKVSCKASGGTFSSSAFSWVRQAPGHGLEWMGRIIPMFDMTDYAQRFQGRLTIIADESSSTAYMELSSLRSEDTAVYYCARSNPHYMDVWGQGTTVTVSS
VL: QLVLTQPPSVSGAPGQRVTISCTGSNSDIGAGHDVHWYQQIPGTAPKVLIYGNTDRPSGVPDRFSGSKSGTSASLAITGLQAEDEADYYCQSYDSSLSGYVFGTGTKVTVL
notes: as for B1
B5: PDL1-22B10 (antibody, V domains shown)
VH: QVQLVQSGAEVKKPGSSVKVSCRASGGTFSSYAISWVRQAPGQGLEWMGRIIPILGIANYAQKFQGRVTITADKSTSTAYMELSSLRSEDTAVYYCARDFVLSGSATVFDPWGQGTLVTVSS
VL: QFVLTQPPSVSGAPGQRVTISCTGSSTNIGAGYDVHWYQQLPGKAPKVVIYGNSNRPSGVLDRFSASKSATSASLAITGLQAEDEADYYCQSYDSSLSGYVFGTGTKVTVL
notes: as for B1
B6: PDL1-23E10 (scFv, V domains shown)
VH: QMQLVESGAEVKKPGSSVKVSCKVSGENFRSHAISWVRQAPGQGLEWMGRIIPIVGLADYPQKFQGRVTISADESTGTAYMDLSSLRSEDTAVYYCVTGRPPWHWGQGILITVSS
VL: QLVLTQPPSVSGAPGQRVTISCTGSSSNIGAGYDVHWYQQLPGTAPKLLIYSNRNRPSGVPDRFSGSKSGTSASLAITGLQAEDEADYYCQSYDSSLSGPNYVFGTGTKVTVL
B7: PDL1-31E6 (antibody, V domains shown)
VH: QVQLVQSGAEVKKPGSSVKVSCKASGGTFSSYAISWVRQAPGQGLEWMGGIIPIFGTANYAQKFQGRVTITADESTSTAYMELSSLRSEDTAVYYCARGGRSFGAFDSWGQGALVTVSS
VL: DIQMTQSPATLSLSPGERATLSCTASQSISSYLAWYQQKPGQAPRLLIYDSSNRATGIPARFSGSGSGTAFTLTISSLEPEDFAVYFCQQRGQWPLTFGGGTKVDIK
notes: as for B1

Legend:
M2 = test: ELISA on coated antigen, column M2
Protocol: (§1) An antigen PD-L1 wild type (WT) or several mutants were coated at a density of 100 ng/well on a 96-well immunoplate at 4° C. for 16 hours and the wells were blocked with 4% skim milk dissolved in PBS. Each well was washed with 0.2 ml of PBS/T, and then a single clone scFv-phage (each […]) cultured for 16 hours was added in a dose of 100 μl to each well and reacted at room temperature for 2 hours. Again, each well was washed 4 times with 0.2 ml of PBS/T, and then the second antibody, anti-Fab, was diluted to 1/2000 and reacted at room temperature for 1 hour. After washing with 0.2 ml of PBS/T, color development was performed and absorbance was measured at 490 nm.

M7 = test: ELISA on coated antigen, column M7
M4 = test: ELISA on coated antigen, column M4
Protocol: as §1

[1] = biological target: PD-L1 on CHO cell line highly expressing PD-L1 (PD-1/PD-L1 blockade bioassay kit, promega J1250) (UniProt Q9NZQ7 19-290, limits assumed); test: cell-based or functional assay
Sequence of PD-L1 on CHO cell line highly expressing PD-L1 (PD-1/PD-L1 blockade bioassay kit, promega J1250) (Q9NZQ7 19-290 limits assumed): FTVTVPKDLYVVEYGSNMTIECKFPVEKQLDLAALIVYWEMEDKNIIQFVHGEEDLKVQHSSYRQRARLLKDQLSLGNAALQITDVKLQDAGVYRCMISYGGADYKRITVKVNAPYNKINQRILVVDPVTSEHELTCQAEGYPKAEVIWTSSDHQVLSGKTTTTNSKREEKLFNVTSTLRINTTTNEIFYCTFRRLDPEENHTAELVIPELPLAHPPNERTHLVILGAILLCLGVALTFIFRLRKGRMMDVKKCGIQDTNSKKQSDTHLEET

ITGA6 = biological target: T1, ITGA6; test: ELISA on coated antigen, column ITGA6
M1 = test: ELISA on coated antigen, column M1
Protocol: as §1

M5 = test: ELISA on coated antigen, column M5
Protocol: as §1

mouse PD-L1 protein = mouse PD-L1 protein (mouse, UniProt Q9EP73 19-238, limits assumed); test: ELISA on coated antigen, column mPD-L1
Sequence of mouse PD-L1 protein (Q9EP73 19-238 limits assumed): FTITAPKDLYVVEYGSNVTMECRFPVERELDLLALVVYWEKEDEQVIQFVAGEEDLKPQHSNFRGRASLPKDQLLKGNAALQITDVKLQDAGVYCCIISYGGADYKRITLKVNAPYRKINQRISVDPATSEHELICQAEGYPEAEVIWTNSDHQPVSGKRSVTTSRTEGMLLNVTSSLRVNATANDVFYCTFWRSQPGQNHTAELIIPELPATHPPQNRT
Protocol: as §1

M6 = test: ELISA on coated antigen, column M6
Protocol: as §1

M8 = test: ELISA on coated antigen, column M8
Protocol: as §1

M3 = test: ELISA on coated antigen, column M3
WT = biological target: T2, WT (human, UniProt Q9NZQ7); test: ELISA on coated antigen, column WT
T2 construct: recombinant; also called hPD-L1; antigen PD-L1 wild type (WT)
T2 sequence (Q9NZQ7 19-238 limits assumed): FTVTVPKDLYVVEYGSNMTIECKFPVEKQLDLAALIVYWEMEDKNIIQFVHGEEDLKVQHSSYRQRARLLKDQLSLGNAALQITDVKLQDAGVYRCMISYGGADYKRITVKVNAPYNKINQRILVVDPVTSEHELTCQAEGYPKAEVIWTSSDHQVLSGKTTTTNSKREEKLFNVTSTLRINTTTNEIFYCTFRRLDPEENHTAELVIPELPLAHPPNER
Protocol: as §1

Binder | absorbance at 490 nm (M2) | absorbance at 490 nm (M7) | absorbance at 490 nm (M4) | Average *EC50 [nM], PD-1/PD-L1 blockade bioassay [1] | absorbance at 490 nm (ITGA6) | absorbance at 490 nm (M1) | absorbance at 490 nm (M5) | absorbance at 490 nm (mouse PD-L1 protein) | absorbance at 490 nm (M6) | absorbance at 490 nm (M8) | absorbance at 490 nm (M3) | absorbance at 490 nm (WT) | binding result (mouse PD-L1 protein)
B1 | 2.4 | 2.6 | 0.5 | 1.61 nM | 0.5 | 2.4 | 2.5 | 2.5 | 2.5 | 2.6 | 0.9 | 2.5 | –
B2 | 1.7 | 1.9 | 1.8 | – | 0.5 | 1.6 | 1.8 | 0.1 | 1.9 | 1.8 | 2.5 | 2.5 | no binding
B3 | 2.5 | 2.7 | 2.6 | – | 0.6 | 2.6 | 2.6 | 0.1 | 2.6 | 2.7 | 2.8 | – | no binding
B4 | 2.5 | 3 | 0.4 | 1.1 nM | 0.5 | 2.6 | 2.9 | 0.1 | 2.9 | 2 | 0.9 | 2.9 | no binding
B5 | 2.3 | 2.5 | 0.4 | – | 0.5 | 2.3 | 2.5 | 0.2 | 2.5 | 2.6 | 1 | 2.5 | no binding
B6 | 2.1 | 2.3 | 0.5 | – | 0.5 | 2.1 | 2.2 | 0.3 | 2.2 | 1 | 0.7 | 2.2 | no binding
B7 | 1.8 | 2.5 | 2.4 | – | 0.5 | 2.1 | 2.7 | 1.3 | 2.5 | 1.9 | 1 | 2.2 | –
